Measured values published in PMC10079162 (Nature Communications, 2023).
Positions count from the first letter of the chain named. In names and notes the source's numbering stands.

B1: Nb.b201 WT (VHH)
VHH: QVQLQESGGGLVQAGGSLRLSCAASGYISDAYYMGWYRQAPGKEREFVATITHGTNTYYADSVKGRFTISRDNAKNTVYLQMNSLKPEDTAVYYCAVLETRSYSFRYWGQGTQVTVSS
notes: source: HEK293 cells; obtained at high purity
B2: Nb.b201 H53R (VHH)
VHH: B1 VHH with H53R
notes: as for B1
B3: Nb.b201 A31D (VHH)
VHH: B1 VHH with A31D
notes: as for B1
B4: Nb.b201 A31D T55G (VHH)
VHH: B1 VHH with A31D, T55G
notes: as for B1
B5: Nb.b201 H53P (VHH)
VHH: B1 VHH with H53P
notes: as for B1
B6: Nb.b201 T55D (VHH)
VHH: B1 VHH with T55D
notes: as for B1
B7: Nb.b201 A31D T55D (VHH)
VHH: B1 VHH with A31D, T55D
notes: as for B1
B8: Nb.b201 H53P T55G (VHH)
VHH: B1 VHH with H53P, T55G
notes: as for B1
B9: Nb.b201 T55G (VHH)
VHH: B1 VHH with T55G
notes: as for B1
B10: CR3022 M40P S56G Q67R; T59K (output_8) (antibody, V domains shown)
VH: QMQLVQSGTEVKKPGESLKISCKGSGYGFITYWIGWVRQPPGKGLEWMGIIYPGDGETRYSPSFQGRVTISADKSINTAYLQWSSLKASDTAIYYCAGGSGISTPMDVWGQGTTVTVVS
VL: not shown

These binders were tested against T1, human serum albumin (Homo sapiens, UniProt P02768) (assay: BLI; format and conditions not told in the main text (methods are in the Supplementary Materials)). Conditions: both partners purified.
T1 construct: also called HSA

Row | Binder | binding result
1 | B1 | binds
2 | B2 | binds
3 | B3 | binds
4 | B4 | binds
5 | B5 | binds
6 | B6 | binds
7 | B7 | binds
8 | B8 | binds
9 | B9 | binds

Each binder was assayed against SARS CoV-2 RBD (SARS-CoV-2, strain  …, UniProt P0DTC2) (assay: not given). Conditions: not given.

Row | Binder | binding result
10 | B10 | binds
